{"source": "paper PMC2891831", "about": "“Insight into the Mechanisms of Adenovirus Capsid Disassembly from Studies of Defensin Neutralization” (PLoS Pathogens, 2010)", "molecules": {"B1": {"name": "HD5: human alpha-defensin; synthetic, obtained from Peptides International; three disulfide bonds (PDB 1ZMP) (peptide, UniProt Q01523 20-94, looked up)", "Defensin alpha 5": "ESLQERADEATTQKQSGEDNQDLAISFAGNGLSALRTSGSQARATCYCRTGRCATRESLSGVCEISGRLYRLCCR", "modifications": "Defensin-5"}}, "tested_on": "binding of HAdV-5 to A549 cells (CAR receptor)", "test": "Fiber knob competition assay: binding of labeled HAdV-5 to cells", "type": "cell-based, human", "description": "Figure 3 HD5 antiviral activity is structure dependent. A) Ribbon representation of HD5 (PDB 1ZMP). Three disulfide bonds are numbered, and the two residues comprising the conserved salt bridge (R6 and E14) are indicated. B) Ad5.eGFP was incubated with 15 µM of each of the indicated defensins. HD5-Abu is HD5 with the six cysteines replaced with L-α-aminobutyric acid. Data are the mean percent of eGFP positive cells compared to control cells infected in the absence of defensin for at least three independent experiments ± SD. C) Binding of Alexa Fluor 488-labeled HAdV-5 to cells was assessed after incubation with or without 20 µM HD5 or HD5-Abu and in competition with 100 nM 5FK or 16 FK. Data are the mean fold increase in geometric mean fluorescence compared to cells alone and are of at least 10,000 cells from each of three independent experiments ± SD.\nIn order to determine the receptor-dependence of this effect, we pre-incubated cells with recombinant fiber knob from HAdV-5 (5FK) to block receptor (CAR) interactions and measured cell binding of fluorescently labeled HAdV-5 that was pre-incubated with or without HD5 or HD5-Abu (Figure 3C). Cells incubated with fiber knob from HAdV-16 (16FK), which binds CD46, served as a control. We observed that virus binding to cells was reduced 5.2-fold in the presence of 5FK compared to 16FK. […]", "note": "“Also recorded” adds a separate entry of the source."}
{"molecule": "B1", "values": [{"measurement": "interaction with CAR receptor in presence of HD5", "setting": "20 µM HD5, competition with 5FK", "value": "does not completely block the interaction with CAR receptor; also recorded: capacity of fiber to bind to CAR was not compromised by HD5 binding"}, {"measurement": "effect on virus binding to cells", "setting": "virus pre-incubated with 20 µM HD5 or HD5-Abu, Alexa Fluor 488, fold increase in geometric mean fluorescence, three independent experiments", "value": "increased virus binding to cells; also recorded: enhanced by HD5"}]}
